Reference: patent US4732973A, “Active site modified protease α-1-antitrypsin inhibitors” (Chiron Corporation, priority 1984, dated 1988)
“And” between values parts separate entries of the source, which are not always exact repeats. Identical values can stand only once.

Legend:
[1] = test system: human leukocyte elastase (HLE); assay: Oxidation resistance: N-chlorosuccinimide (NCS) treatment, then anti-HLE activity assay; format: biochemical
Method: To determine the anti-elastase activities of the mutant (Val) or wild-type (Met) α1 -antitrypsin, appropriate yeast extracts were incubated with human leukocyte elastase (HLE) and a synthetic peptide substrate the cleavage of which can be assayed at 410 nm (Beatty et al., supra). For the assay, extracts were diluted in 50 mM Tris pH8, 50 mM NaCl. […] Assays were initiated by the addition of 0.1 5 μg HLE and were incubated for 15 min at 28° C., terminated by the addition of 100 μl of 8N acetic acid and the absorbance at 410 nm determined (Beatty et al., supra).
For this purpose, aliquots of the extracts were diluted in 50 mM Tris pH8, 50 mM NaCl, incubated at room temperature for 5 min in 100 μl of 50 mM Tris pH8, with the indicated amount of NCS, and assayed for anti-HLE activity.

[2] = test system: human leukocyte elastase (HLE); assay: Anti-elastase activity: inhibition of human leukocyte elastase cleavage of MeO-Suc-Ala-Ala-Pro-Val-p-nitroanilide (A410); format: biochemical
Method: For the assay, extracts were diluted in 50 mM Tris pH8, 50 mM NaCl. […] Assays were initiated by the addition of 0.1 5 μg HLE and were incubated for 15 min at 28° C., terminated by the addition of 100 μl of 8N acetic acid and the absorbance at 410 nm determined (Beatty et al., supra). Protein concentrations were determined as described in Bradford, Anal. Biochem. (1976) 72:248-253. From the amount of human leukocyte elastase activity observed, given the protein concentration of the yeast extracts and the amount of the enzyme added, the percentage of the yeast soluble protein which is α1 -antitrypsin can be calculated. It is assumed that there is 100 percent human leukocyte elastase activity, a 1:1 complex between human leukocyte elastase and α1 -antitrypsin whose molecular weights are 29 kD and 42 kD, respectively.

α1 AT: Control human α1-antitrypsin added in μg amounts to the elastase assay
Elastase Activity (%) ([1]; Table 1, 1.0 μg control human α1 AT plus 3.8 μl Cl/l yeast extract, NCS (10 mM) 10 μl): 84%
Elastase Activity (%) ([1]; Table 1, 1.0 μg control human α1 AT, NCS (10 mM) 10 μl): 91%
Elastase Activity (%) ([1]; Table 2, 0.5 μg control human α1 AT, NCS (10 mM) +): 96%
Elastase Activity (%) ([2]; Table 1, 0.2 μg control human α1 AT, no NCS): 67%
Elastase Activity (%) ([2]; Table 1, 1.0 μg control human α1 AT plus 3.8 μl Cl/l yeast extract, no NCS): 12%
Elastase Activity (%) ([2]; Table 1, 1.0 μg control human α1 AT, no NCS): 5% and 0%
Elastase Activity (%) ([2]; Table 2, 0.5 μg control human α1 AT, NCS -): 44%
Elastase Activity (%) ([2]; Table 2, 1.0 μg control human α1 AT, NCS -): 10%
